Molecular target: T1, endogenous Vps11 (HOPS subunit) (rat, UniProt D3ZTB4 2-941)
T1 construct: whole, on cells; Endogenous protein detected in situ with an anti-Vps11 antibody; also called vacuolar protein sorting-associated protein 11 homolog
T1 sequence: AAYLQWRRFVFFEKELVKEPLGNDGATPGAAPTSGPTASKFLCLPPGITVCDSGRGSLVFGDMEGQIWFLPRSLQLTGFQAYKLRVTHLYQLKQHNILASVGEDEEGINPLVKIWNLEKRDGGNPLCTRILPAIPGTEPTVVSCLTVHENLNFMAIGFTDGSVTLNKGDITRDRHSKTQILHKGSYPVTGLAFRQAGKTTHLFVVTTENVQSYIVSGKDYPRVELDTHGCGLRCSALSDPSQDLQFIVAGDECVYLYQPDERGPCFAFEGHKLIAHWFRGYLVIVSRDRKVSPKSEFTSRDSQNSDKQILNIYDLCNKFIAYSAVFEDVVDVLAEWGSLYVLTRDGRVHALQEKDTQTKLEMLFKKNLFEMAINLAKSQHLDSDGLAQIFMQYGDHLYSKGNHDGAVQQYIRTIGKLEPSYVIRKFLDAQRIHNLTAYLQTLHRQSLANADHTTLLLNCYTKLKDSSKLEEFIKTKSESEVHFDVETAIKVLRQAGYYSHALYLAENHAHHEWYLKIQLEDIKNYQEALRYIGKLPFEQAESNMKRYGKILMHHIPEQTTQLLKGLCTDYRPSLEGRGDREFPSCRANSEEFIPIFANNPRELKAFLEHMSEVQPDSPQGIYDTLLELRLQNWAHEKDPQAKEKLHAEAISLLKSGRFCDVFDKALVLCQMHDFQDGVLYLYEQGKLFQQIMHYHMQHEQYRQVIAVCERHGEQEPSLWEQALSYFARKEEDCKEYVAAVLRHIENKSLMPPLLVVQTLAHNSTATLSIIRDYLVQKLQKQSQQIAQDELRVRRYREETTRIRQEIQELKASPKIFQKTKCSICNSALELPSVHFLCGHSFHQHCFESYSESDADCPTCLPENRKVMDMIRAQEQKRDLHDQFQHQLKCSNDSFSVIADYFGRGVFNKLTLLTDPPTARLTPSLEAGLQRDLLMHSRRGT
Experiment: proximity ligation assay (in situ co-IP) in transfected hepatic cells, baseline (OA) and 1 h post-EPA
Protocol: The A18-C3 cells were cultured in DMEM (Invitrogen) supplemented with fetal bovine serum (20%), penicillin (50 U/mL), streptomycin (50 μg/mL, Invitrogen) and Geneticin/G418 (500 μg/mL, Gibco) at 37° C. in 5% CO₂. Transfection was conducted when cells were 60-70% confluence. Appropriate plasmids were mixed with FuGENE HP extreme reagent (Roche Diagnostic), according to manufacturer's protocol, and incubated for 30 min. […] In silencing experiments, appropriate siRNAs were transfected into cells using the X-treme GENE siRNA regent (Roche Diagnostic).
One h post-EPA treatment, the cells were fixed, permeabilized and incubated with an anti-RFP antibody together with proper anti-Vps11, -Vps39, and -Vps41 antibodies. The proximity ligation was achieved using the Duolink secondary PLA probes (Olink AB) that detects substrate formation between the two antibodies as described previously³⁸.

binding result: no binding
B1: mCherry-tagged Arl8b^T34N (other)
chain: MLALISRLLDWFRSLFWKEEMELTLVGLQYSGKNTFVNVIASGQFSEDMIPTVGFNMRKVTKGNVTIKIWDIGGQPRFRSMWERYCRGVNAIVYMIDAADREKIEASRNELHNLLDKPQLQGIPVLVLGNKRDLPNALDEKQLIEKMNLSAIQDREICCYSISCKEKDNIDITLQWLIQHSKSRRS
notes: Fusion protein expressed by plasmid transfection inside McA-RH7777 (A18-C3) hepatic cells and detected in situ with an anti-RFP antibody; also called ^mCherryArl8b^T34N; RFP-tagged Arl8b^T34N; not shown: C-terminal mCherry tag and its RDP linker

From patent US20190125827A1 (UNIVERSITY OF OTTAWA, published 2019)
